# Data taken from the DeepSol protein solubility set.
# Assay: soluble on expression in E. coli; label from the status in PepcDB or PDB records
row,Sequence,soluble on expression in E. coli
1,MKAQEVPSTTFTGGETVLTFKGGVHPPELKEWSKDKPIERAPLPQKVFVFLSNHAGNPAKPVVSPGDEVKTGQVIGEPEGFISAYLHSPVTGRVLEIKKILHPILGKPIEAIVIERTSDDEWVHIETGDFERMSKEEILEIIKKAGIVGLGGAMFPTHVKLSPPPEKKVDTLIVNGAECEPVLTIDHRLMLERAEDILQGILIMMKVLGVQKAVVGVESNKMDAYHNLKKVFKGYPVDVALLRTKYPQGAEKQLIYAITGRMVPRGGLPMDVGVVVQNVGTCVAVKEAVVDGKPLVERGMTVSGDAVKNQKNLIVRIGTPVKDVIDYCGGIDENTERVILGGPMMGISITNLDIPVMKGTSGITAFLPKKSRPQKPCIRCSECVQVCPMNLQPYLLYLLSTKRKYDEAVENGLMDCIECGSCTYTCPSKIEHVRYIKLAKTVYRATRRGRRAAALEHHHHHH,soluble
2,MKAVDQAPKKKSHERKRKEKRVHTGNGTAKKHHKRKSRSKSKNKPKNGLSCCRKKKKKSKKSKSKVTKKQPKKKVIKPLAPVPNEQLGEVVLVKNVKLPETPQKPENDTPVKDGLKPPRTTNSVEKINLSKESFNLSNEKIASDNGTEEKMEKKNVDSPADIQDGLKGKSKQKSEEKVHQKAKDDAKRGDECNKFKISDEKLTKWKLVAQETLKDDANIAVNEFEKVSGYLPPHISKNHFVSNMDKNRFVDVICMDHSRVKLTDSSYIHANWVDLNSSKKAILTQLPLSHTASDFWQMIIDQKIKCVLLIMTDGEFNKFGGNSVFPQNQDFLKFEDRFIRVGEFKQVELGKGWNLKVLSVSNGTYKTFIHVHHYKNWPHGSIPSDVKQIWQVQSYLRKYTDGHPPVYMSMSGCGRAGTFALFETAHMSLHNEQPSLNMVKCLENVRNGRLHSVQNLSQFSVVYTLIAEHVLGNGIGKKDVEEQENSIDNILRQLTIQ,not soluble
3,MKAVTFPVPWEYLKRIFEGKNVFVKPATLRVEEGMKVIFYASRENQGWHGEAEVERVEYYTSVEEIIKKYRDKLFLTPEELRRYERDRARWDSGRRKRPWMVLVLRNIEKYPRVVKPKKFIVVSGRYVDEKEYEEIRRSTSLEHHHHHH,soluble
4,MKDGMRVGERFTHDFVVPPHKTVRHLYPESPEFAEFPEVFATGFMVGLMEWACVRAMAPYLEPGEGSLGTAICVTHTAATPPGLTVTVTAELRSVEGRRLSWRVSAHDGVDEIGSGTHERAVIHLEKFNAKVRQKTPAG,soluble
5,MKDIEKARRYLRNAGEMLRKNEVDEDGIYNNRKHVKIAGNRAYSGVLTALDAVLGNKTSDRKTLDWYEEELTNIDPKILPYFLTAYDVLYLAMGYDGNLIAAISKEGLDIAEKIINWAEQRTAA,not soluble
6,MKDTLKIGLLGLGTVGTGVLTLLKEHQEKISQVTGMNVVIEKAFVRNLETKQAQAEEYGLSLTTSIDDILEDKEIQIVVELMGTIEPAKTYIMKALEKGKHIVTANKDLLAQHGSELVALAQKHHCDLYYEASVAGGIPILRTIANSLAADNIQQVLGIVNGTTNYMLTQMVSADKSYEEALAEAQALGFAEADPTNDVDGIDAAYKMVILSQFAFGMNVSLPQVDIRGIRGLSLDDVAMAKQLGYEIKLIGSAEQNENSISVEVAPMLVNQKHPIASVRNEYNAVFIKSAGVGESMYYGPGAGAKPTATSVVSDLITIAKNIRLATTGHMFNSYQHKTQLTSSENVFGQYYFSLDVPDTPGQFLQLTQLMTKAEVSFDQLVQQKSDGQRARIVAITHQISKAQMQQVVIAIQNTEAFQLLNVMKVIGDE,not soluble
7,MKEARKRMVKRAVQEIKDGMNVNLGIGMPTLVANEIPDGVHVMLQSENGLLGIGPYPLEGTEDADLINAGKETITEVTGASYFDSAESFAMIRGGHIDLAILGGMEVSEQGDLANWMIPGKMVKGMGGAMDLVNGAKRIVVIMEHVNKHGESKVKKTCSLPLTGQKVVHRLITDLAVFDFVNGRMTLTELQDGVTIEEVYEKTEADFAVSQSVLNS,soluble
8,MKEIIARHKAGEHLGICSVCSAHPLVIESALLFDLNTDNKVLIEATSNQVNQFGGYTGMKPADFRDFVYGIAQEVGFPRERLILGGDHLGPNCWQNEPAAAAMEKSVELIKAYVAAGFSKIHLDASMSCADDPTPLDPMVVARRAAVLCKAAEGTANEEQKCHLTYVIGTEVPVPGGEASTIGSVHVTREVDAARTLETHQIAFRESGLEEALSRVIAIVVQPGVEFDHTQIIHYQPQAAQALSAWIKETPMVYEAHSTDYQTRQAYRALVRDHYAILKVGPALTFALREAIFALAQMENELISPEQRSRVLEVIDEVMLNEPGYWKKYYRPTWSQAMVDIHFSLSDRIRYYWPHPRIRQSVEKLIANLNNVTLPLGLISQFMPVQFERLSEGVLTPTPHNLIIDKIQDVLRAYRFGCTPDVA,not soluble
9,MKELKQAEQIRTWVQSILTDESSGHDWHHVSRVADLAAYIGEKEKADLFIVETAALVHDLIDVKLPDTVRLSVSEVYDQLVFFGVGKENADRVIHIITRMSFRDRGKLAKEPLSIEGKAVQDADRLDAIGAVGIARAFMFAGAKGHGLYGDEQSAYAHFFHKLLRLKDMMNTDTARELAEERHNFMLQFVRQLEKDIPGIDAETSLEHHHHHH,soluble
10,MKELLKELVEKNRKFTADGNVANYIPELDKADKNALGIYVTTLDGQEFFAGDYNTKFTIQSISKIISLMLAILDNGEEYVFSKVGMEPSGDPFNSIRKLETSSRKKPYNPMINAGAIAVASMIKGKDDREKFSRLLNFAKLITEDDSLDLNYKIYIGESDTGFRNYSMAYFLKGEGIIEGNVNEALTVYFKQCSIEGTAKTISTLGKFLANDGVLSNGERILTTRMAKIIKTLMVTCGMYDSSGEFAVRVGIPSKSGVGGGICSVVPGKMGIGVYGPSLDKKGNSLAGGHLLEDLSAELSLNIFLEHHHHHH,not soluble
11,MKEMTVSEIREVQLEMLAYIDKVARDNKIEYSLGGGSLLGAMRHKGFIPWDDDIDLMLERSQYERLMKALADANNSDFKLLHHSVEKNLWPFAKLYHTKSMYLSKTDRIHPWTGIFIDIFPLDRLPESAEERQRFFKKVHSAAANLMCTTYPNFASGSRKLYANARLILGLPRFIAYHGQAKKRAEIVDQVMETYNNQEVPYMGYTDSRYRLKEYFPREIFSEYEDVMFENIKTRKIKNEHAYLNQLYGGSYMELPPESKRESHSYYTWYWKEGLEHHHHHH,soluble
12,MKENPSFLKEQIITYLGNKRALLSFLNNGFKVAKKELGKDKFSFCDIFSGSGVVSRFAKAHSNYILANDLEDYSKLINECYLANKDKDLLQNIKKYYKNLIQNLDFQKGFISELYAPKDDDDIKKNERVFYTFKNALYLDTIRQKIENEIPKELRHFFIAPLIYEASVHSNTSGVFKGFYKGKDGIGKFGGEGQNALKRIKGEIELKMPIFSNFSCEFEVMQKDANMLAKELDFFDVVYLDPPYNQHPYSSNYFMLNLIANYKKPEEISKISGIPKDWNRSTFNKSKFAQDALFELINDLKARVILLSYNCEGFVKKEIFLKRLSTLGKCRILEQKYNTFRASRNLKNRNIHLHEQLYILVKN,not soluble
13,MKERFMSKFAIVFPGQGSQAVGMLADLAEQYAVVKQTFAEASEVLGYDLWALVQDGPVEDLNQTFRTQPALLAASVAIWRVWQQLGLEQPAVLAGHSLGEYSALVCAGVIDFKQAIKLVELRGQLMQQAVPAGTGAMYAIIGLEDEAIAKACADAAQGEVVSPVNFNSPGQVVIAGQKDAVERAGVLCKEAGAKRALPLPVSVPSHCALMKPAADELAKTLAELEFNAPQIPVINNVDVVAETDPVKIKDALIRQLYSPVRWTECVEQMSAQGVEKLIEMGPGKVLTGLTKRIVKTLEGVAVNDVASLDAVK,soluble
14,MKERVIITGANGQLGKQLQEELNPEEYDIYPFDKKLLDITNISQVQQVVQEIRPHIIIHCAAYTKVDQAEKERDLAYVINAIGARNVAVASQLVGAKLVYISTDYVFQGDRPEGYDEFHNPAPINIYGASKYAGEQFVKELHNKYFIVRTSWLYGKYGNNFVKTMIRLGKEREEISVVADQIGSPTYVADLNVMINKLIHTSLYGTYHVSNTGSCSWFEFAKKIFSYANMKVNVLPVSTEEFGAAAARPKYSIFQHNMLRLNGFLQMPSWEEGLERFFIETKSH,not soluble
15,MKEVEKNEIKRLSDRLDAIRHQQAGLSLVESADKYAELEKEKETLEAEIIRLREVHSQKLSKEAQKLMNLPFRRAITKKEQADMGKLKKSVRGLIVVHPMTALGREMGLKEMTGFAKSEF,not soluble
16,MKEVKRPVVSVVVPVYNTEPFLAECLHSLEKQTLTDIEIILVNDGSTDNSGRLLREYAGKDARFVYVEQENQGLSAARNTGMEHASGHYLAFLDSDDWLAENALQVLCAIAAKTRTDIVSGNTLAVHADGQVQSWERRGRELFATGTVVSGSTYFSRVMDCRCYVPMVYNYLYRRDFIEQNGFRFEPGLVHEDELWTPQVLTTAQKITVADIDFYYYRQREGSIMTATAAGRRIASIQLIIEKLLEYSRKHLFEKKYREAKEALYVRLLQIYSTACTLHPDGTYTTLYDRAGEMLRVCEELRRQESLGRWYSEEILNRMKLYYDRLQTMEG,not soluble
17,MKEVLKLADEKFVMSFSGGKDSILALNRMLKKGYKPVALLTTISEEHGKSWTHNLEYNMLKQVSSNIGLPLLVAECGVEGYEESFERALIKAKNMGATICAYGDIDIESHRKWDTDRCEAVGMKVDLPLWQESREDLVYEFIDSGFCSVVTKVNLKHLGEEFLGKKLTRELVEKIKNAGADPCGEHGEYHTFVVDGPIFKKPVEYEVKGTLIKDGYGYLEIK,not soluble
18,MKFAVIVFPGSNCDVDMFHAIKDELGEEVDYVWHDTENLDEYDAILLPGGFSYGDYLRCGAISRFANAMKAVQKAAEQGKPILGVCNGFQILVESGLLPGALIRNENLKFMCRTVQLRVENNETMFTSQYEKDEIINIPIAHGEGNYYCDEATLKQLEENNQIAFRYVENPNGSVSDIAGIVNEKGNVLGMMPHPERAVDELLGGAEGLKVFQSILKQWRETYVVNA,not soluble
19,MKFETLDFNDEKDIKNFKTDCGDLQDCFTALPCRPGSNNQLDKRLRSIEWVCKAIVFLTEDFSNCFDKLHEKNAECVQNWNPLPNEIYLEDDKMKVEKMKENACDTYFGKDDCVKKEIIERCGQEEWNTFRKVPN,not soluble
20,MKFGLFFLNFMNSKRSSDQVIEEMLDTAHYVDQLKFDTLAVYENHFSNNGVVGAPLTVAGFLLGMTKNAKVASLNHVITTHHPVRVAEEACLLDQMSEGRFAFGFSDCEKSADMRFFNRPTDSQFQLFSECHKIINDAFTTGYCHPNNDFYSFPKISVNPHAFTEGGPAQFVNATSKEVVEWAAKLGLPLVFRWDDSNAQRKEYAGLYHEVAQAHGVDVSQVRHKLTLLVNQNVDGEAARAEARVYLEEFVRESYSNTDFEQKMGELLSENAIGTYEESTQAARVAIECCGAADLLMSFESMEDKAQQRAVIDVVNANIVKYHSLEHHHHHH,soluble
21,MKFKQDFFTQLPEFYSQVYPQGISNPHWLAWSDDAAALIGLHQPTDELLQGLSGNAAVEGASYYAQVYSGHQFGGYTPRLGDGRSIILGEAIGPNGAWDVALKGGGPTPYSRHGDGRAVMRSAVREFLVSEALHHLGVPTTRALAVIGSDMPVWRESQETAAITVRLARSHIRFGHFEFFSHSERGQADKLTQLLNFTLKQHYPHLSCDPAGYKAWFLQVVQDSAKMIAHWQAIGFAHGVMNTDNMSILGDSFDFGPFAFLDTFQEDFICNHSDPDGRYAFGQQPGIGLWNLQRLAQALTPVIASDDLIAALNQYQHALVQHYLALMRAKLGLVQQADSSAEQDQQDLELIGRFTVLMEKNQLDYSHTWRRFGQLDPSSLHSSLRDDFIDLNEFDAWYQVYQARLGKVTDVEAWQQQCNRVNPKYILRNYLAQEAIIAVDEGNLAQLQRLHQVLRQPFTEQIEHEELAKRPPDWGQGLIMSCSS,soluble
